Data as given in patent publication US20220056425, “RNA PO[…] FOR […] OF MODIFIED RNA” (GUARDIAN THERAPEUTICS, LLC, published 2022).
Numbering of substitutions follows the chain as printed.

B1: CT aptamer clone 1 (ssRNA)
RNA: GGGAGAGCAUUGCUCGUUAGUGUCGUCUCGGAGUUUAUCUCCGUGGUCGUUGAAGCUAGUGACUCGGAUCAUCUAGG
B2: CT aptamer clone 2 (ssRNA)
RNA: GGGAGAGCAUUGCUCGUUAGUGUCGUCUUGGUAAUUCCCUUUCUGGUCGUUUAAGCUAGUGACUCGGAUCAUCUAGG
B3: CT aptamer clone 11 (ssRNA)
RNA: GGGAGAGCAUUGCUCGUUAGUGUCGUCUCAUCGAAUGGUCGGUGUGGUCGUUAAGCUAGUGACUCGGAUCAUCUAGG
B4: CT aptamer clone 3 (ssRNA)
RNA: GGGAGAGCAUUGCUCGUUAGUGUCGUCUUAAACUUCGUGUUUUUGGUCGUUGUAGCUAGUGACUCGGAUCAUCUAGG
B5: CT aptamer clone 4 (ssRNA)
RNA: B4 RNA with A30C, C33U, U34C, U35A, C36U, U38C, G39A, U42G, U53A
B6: CT aptamer clone 5 (ssRNA)
RNA: GGGAGAGCAUUGCUCGUUAGUGUCGUCUCGCGAACGUUAAUCGCGUGGUCGUGAGCUAGUGACUCGGAUCAUCUAGG
B7: CT aptamer clone 6 (ssRNA)
RNA: B1 RNA with G31A, G33U, U34C, U35G, U36A, U38C, C39U, C41U, G52A
B8: CT aptamer clone 7 (ssRNA)
RNA: GGGAGAGCAUUGCUCGUUAGUGUCGUCUUGACCUUUGCUGGUCAUGGUCGUAAAGCUAGUGACUCGGAUCAUCUAGG
B9: CT aptamer clone 8 (ssRNA)
RNA: B3 RNA with C29A, A34G, A35U, G37U, G38U, U39C, G44U, A53G
B10: CT aptamer clone 9 (ssRNA)
RNA: GGGAGAGCAUUGCUCGUUAGUGUCGUCUCGGGAUUUUUCCCGUGGUCGUUCAUAGCUAGUGACUCGGAUCAUCUAGG
B11: CT aptamer clone 10 (ssRNA)
RNA: GGGAGAGCAUUGCUCGUUAGUGUCGUCUCGAGUUGUGAUUACUCGUGGUCGUAAGCUAGUGACUCGGAUCAUCUAGG
B12: W2.S1.1_R6F-1 (ssRNA)
RNA: GGGAGAGCAUUGCUCGUUAGUGGCGUUACAGCAGUUGCCACAAGGCACGUUUUAGCUAGUGACUCGGAUCAUCUAGG
modifications: 2'-OMe at all nucleotides
B13: W2.S1.1_R6P-1 (ssRNA)
RNA: GGGAGAGCAUUGCUCGUUAGUGGAGCCUAUGGUUGUUGUGUGCUCCUCGCGGGAGCUAGUGACUCGGAUCAUCUAGG
modifications: 2'-OMe at all nucleotides

target: Cholera toxin (holotoxin and/or B subunit) (UniProt P01555;P01555;P01556 P01555:19-212,P01555:213-258,P01556:22-124); assay: not given

Row | Binder | binding result
1 | B1 | binds
2 | B2 | binds
3 | B3 | binds
4 | B4 | binds
5 | B5 | binds
6 | B6 | binds
7 | B7 | binds
8 | B8 | binds
9 | B9 | binds
10 | B10 | binds
11 | B11 | binds

target: KRAS (UniProt P01116 P01116:1-189); assay: plate binding compared to BSA; only central region printed

Row | Binder | binding result
12 | B12 | binds
13 | B13 | binds
